This data set deals with the molecule itself. In words: SEC; HR200 Increase (Superdex 200 Increase 10/300 GL) column in 10 mM Tris-Cl, pH 8, 20 mM β-mercaptoethanol, 0.5 ml/min, calibrated with molecular weight markers; for Δ29 100 μl of 1.0 mg/ml injected; self-association.

Several values for one entry are separate records, joined by “and”; a condition that tells them apart may be missing. Equal values may be shown once.

As a reminder, the stoichiometry N is a count of units in the complex or per binding partner.

B1: CaNce103p, carbonic anhydrase from Candida albicans, wild-type full length (enzyme)
chain: MGRENILKYQLEHDHESDLVTEKDQSLLLDNNNNLNGMNNTIKTHPVRVSSGNHNNFPFTLSSESTLQDFLNNNKFFVDSIKHNHGNQIFDLNGQGQSPHTLWIGCSDSRAGDQCLATLPGEIFVHRNIANIVNANDISSQGVIQFAIDVLKVKKIIVCGHTDCGGIWASLSKKKIGGVLDLWLNPVRHIRAANLKLLEEYNQDPKLKAKKLAELNVISSVTALKRHPSASVALKKNEIEVWGMLYDVATGYLSQVEIPQDEFEDLFHVHDEHDEEEYNPH
notes: Carbonic anhydrase Nce103p of Candida albicans, full length (C-terminus at residue 281); gene amplified from genomic DNA of strain HE109; stop codon kept so that no His-tag is attached; purified on Ni through four natural C-terminal histidines; also called wt; source: E. coli BL23(DE3), purified (HiTrap Ni column, MonoQ)
As to B1, the “stoichiometry N” value was 2 and 4.

B2: Δ29_CaNce103p, CaNce103p lacking the first 29 amino acids (domain or fragment)
chain: DNNNNLNGMNNTIKTHPVRVSSGNHNNFPFTLSSESTLQDFLNNNKFFVDSIKHNHGNQIFDLNGQGQSPHTLWIGCSDSRAGDQCLATLPGEIFVHRNIANIVNANDISSQGVIQFAIDVLKVKKIIVCGHTDCGGIWASLSKKKIGGVLDLWLNPVRHIRAANLKLLEEYNQDPKLKAKKLAELNVISSVTALKRHPSASVALKKNEIEVWGMLYDVATGYLSQVEIPQDEFEDLFHVHDEHDEEEYNPH
notes: Carbonic anhydrase Nce103p of Candida albicans (strain HE109) lacking the first 29 amino acids; C-terminus at residue 281; no tag (stop codon kept); source: E. coli BL23(DE3), purified (HiTrap Ni column, MonoQ)
For B2, the “stoichiometry N” value is 4 and 2.
